Measured values: patent publication US20250340651A1 (CULLINAN MICA, published 2025)

Columns and labels:
[1] = target: MICA antigen of Table 2 (purified 6×His-MICA*08 or 6×His-MICA*04 protein); test: BLI (ForteBio Octet Red96); mAb captured on anti-mouse IgG Fc sensors, 6×His-MICA in solution, 1:1 model
Protocol: Affinity kinetics was determined on a ForteBio Octet Red96 analyzer. […] Sensors were washed in assay buffer and then incubated with purified 6×His-MICA*08 or 6×His-MICA*04 proteins (100 nM), in 2-fold dilution series for 5 minutes in assay buffer to determine association kinetics of the antibody with the protein antigen. Sensors were then incubated in assay buffer for 10 minutes to determine dissociation kinetics. The resulting kinetics parameters were calculated with ForteBio analysis suite 8.0 using a 1:1 model.

[2] = target: T1, Recombinant MICA*04 protein; test: ELISA on coated recombinant antigen (1 µg/ml), goat anti-mouse IgG-HRP, OD 450 nm
T1 construct: Coated on ELISA plates
T1 sequence (Q29983 whole entry, species assumed, looked up): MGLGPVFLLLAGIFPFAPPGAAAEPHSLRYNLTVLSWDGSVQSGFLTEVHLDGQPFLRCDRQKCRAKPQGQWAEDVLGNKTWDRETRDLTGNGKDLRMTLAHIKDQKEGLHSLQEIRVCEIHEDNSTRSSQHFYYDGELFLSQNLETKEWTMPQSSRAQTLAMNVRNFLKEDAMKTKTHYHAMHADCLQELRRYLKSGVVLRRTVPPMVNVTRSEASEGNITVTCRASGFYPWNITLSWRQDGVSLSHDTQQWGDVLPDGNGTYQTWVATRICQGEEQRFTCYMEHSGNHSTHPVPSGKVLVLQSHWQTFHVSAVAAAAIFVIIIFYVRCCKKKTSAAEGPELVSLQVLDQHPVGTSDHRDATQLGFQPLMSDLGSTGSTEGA
Protocol: (§1) Recombinant MICA*01, MICA*02, MICA*04, MICA*08, MICA*09, and MICB proteins were diluted to 1 μg/ml in 50 mM sodium carbonate buffer, pH 9.6, and coated onto high binding 96-well microplates (Corning #9018), 100 ng in 100 μl per well. The following morning, coated ELISA plates were washed three times with TBS-Tween-20, pH 7.4 and then blocked in SuperBlock T20 Blocking Buffer (Pierce #37536). After blocking, ELISA plates were washed once with TBS-T and incubated with serially diluted anti-MICA antibody ([…]) for approximately two hours at room temperature. Following the incubation, ELISA plates were washed three times with TBS-T and then incubated with Goat anti-Mouse IgG (H+L)-HRP conjugate (ThermoFisher Scientific #626520) for 45 minutes at room temperature with shaking (˜400 rpm). After the incubation, ELISA plates were washed three times with TBS-T and incubated with Super Sensitive Liquid Substrate TMB (Sigma #T4444), 100 μl per well, until color development was sufficient. The reaction was stopped with 1N sulfuric acid, 100 μl per well. Optical density (OD) values were measured at 450 nm using a microplate reader.

[3] = target: T2, Recombinant MICA*01 protein (Homo sapiens (Human), UniProt Q29983 24-307); test: as above
T2 construct: Coated on ELISA plates
T2 sequence: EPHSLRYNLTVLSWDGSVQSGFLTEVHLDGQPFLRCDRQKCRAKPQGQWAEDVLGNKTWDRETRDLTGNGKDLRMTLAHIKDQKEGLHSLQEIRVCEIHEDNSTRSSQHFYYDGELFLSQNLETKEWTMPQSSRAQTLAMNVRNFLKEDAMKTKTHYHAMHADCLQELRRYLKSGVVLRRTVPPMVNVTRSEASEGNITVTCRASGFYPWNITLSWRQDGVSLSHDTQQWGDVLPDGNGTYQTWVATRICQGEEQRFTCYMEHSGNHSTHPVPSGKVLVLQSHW
Protocol: as §1

[4] = target: T3, Recombinant MICA*09 protein; test: as above
T3 construct: Coated on ELISA plates
T3 sequence (Q29983 whole entry, species assumed, looked up): T1 sequence (Q29983 whole entry, species assumed, looked up)
Protocol: as §1

[5] = target: T4, Recombinant MICA*08 protein; test: as above
T4 construct: Coated on ELISA plates
T4 sequence (Q29983 whole entry, species assumed, looked up): T1 sequence (Q29983 whole entry, species assumed, looked up)
Protocol: as §1

[6] = target: T5, Recombinant MICA*02 protein; test: as above
T5 construct: Coated on ELISA plates
T5 sequence (Q29983 whole entry, species assumed, looked up): T1 sequence (Q29983 whole entry, species assumed, looked up)
Protocol: as §1

Recombinant MICB protein = target: T6, Recombinant MICB protein (UniProt Q29980 23-298, limits assumed); test: as above
T6 construct: Coated on ELISA plates
T6 sequence (looked up): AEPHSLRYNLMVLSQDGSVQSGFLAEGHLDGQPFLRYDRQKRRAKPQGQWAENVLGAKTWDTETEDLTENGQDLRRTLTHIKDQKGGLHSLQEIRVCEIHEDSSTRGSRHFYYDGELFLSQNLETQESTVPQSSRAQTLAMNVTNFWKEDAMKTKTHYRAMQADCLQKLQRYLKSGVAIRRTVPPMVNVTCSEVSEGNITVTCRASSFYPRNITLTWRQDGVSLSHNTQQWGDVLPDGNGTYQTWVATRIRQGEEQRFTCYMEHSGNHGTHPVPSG
Protocol: as §1

human FcRn = human FcRn (human, UniProt P55899 24-297; P61769 21-119, limits assumed); test: Biacore (SPR), steady state analysis, pH 6.0; Relative Binding +++
Chain of human FcRn (P55899 24-297 limits assumed, chain 1 of 2): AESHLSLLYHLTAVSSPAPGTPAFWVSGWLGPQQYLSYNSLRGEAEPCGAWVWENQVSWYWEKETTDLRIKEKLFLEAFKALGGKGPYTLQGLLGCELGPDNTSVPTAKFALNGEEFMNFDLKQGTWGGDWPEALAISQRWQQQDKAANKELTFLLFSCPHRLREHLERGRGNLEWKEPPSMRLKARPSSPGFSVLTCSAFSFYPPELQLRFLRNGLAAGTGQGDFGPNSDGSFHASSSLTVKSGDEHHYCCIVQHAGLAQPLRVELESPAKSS
Chain of human FcRn (P61769 21-119 limits assumed, chain 2 of 2): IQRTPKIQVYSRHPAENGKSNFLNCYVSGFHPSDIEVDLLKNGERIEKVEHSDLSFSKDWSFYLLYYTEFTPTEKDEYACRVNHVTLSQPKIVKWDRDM

CD32B = target: T7, CD32B (human, UniProt P31994); test: Biacore (SPR), receptor loaded on the chip, antibody 296.3 to 24000 nM as analyte, steady state analysis (FIG. 9)
T7 construct: also called FcγRIIB
T7 sequence (receptor, looked up): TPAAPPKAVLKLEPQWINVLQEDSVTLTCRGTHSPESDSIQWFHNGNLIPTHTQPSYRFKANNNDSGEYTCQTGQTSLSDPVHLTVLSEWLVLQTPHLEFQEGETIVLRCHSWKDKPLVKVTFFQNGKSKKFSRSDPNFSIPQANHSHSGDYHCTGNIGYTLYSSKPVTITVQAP

CD32A (167His) = target: T8, CD32A (167His); test: as above
T8 construct: also called FcγRIIA 167His; not shown: The vendor's tag
T8 chain: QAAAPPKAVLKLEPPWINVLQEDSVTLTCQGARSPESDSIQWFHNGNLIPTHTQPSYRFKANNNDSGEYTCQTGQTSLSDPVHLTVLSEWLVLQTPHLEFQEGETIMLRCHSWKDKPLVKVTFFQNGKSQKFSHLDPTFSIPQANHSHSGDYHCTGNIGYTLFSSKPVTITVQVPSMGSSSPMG

CD16A (176 Val) = target: T9, CD16A (176 Val) (human, UniProt P08637); test: Biacore (SPR), receptor loaded on the chip, antibody as analyte, steady state analysis (FIG. 9)
T9 construct: also called FcγRIIIA 176 Val
T9 sequence (P08637 17-208 F176V limits assumed): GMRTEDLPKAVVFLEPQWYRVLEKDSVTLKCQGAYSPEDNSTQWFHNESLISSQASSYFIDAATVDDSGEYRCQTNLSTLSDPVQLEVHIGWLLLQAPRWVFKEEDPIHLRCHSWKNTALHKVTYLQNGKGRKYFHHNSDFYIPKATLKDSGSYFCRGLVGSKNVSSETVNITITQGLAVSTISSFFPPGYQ

CD16A (176 Phe) = target: T10, CD16A (176 Phe) (human, UniProt P08637); test: as above
T10 construct: also called FcγRIIIA 176Phe
T10 sequence (P08637 17-208 limits assumed): as the sequence (P08637 17-208 F176V limits assumed) above, with V160F counted along it

human FcγRI = target: T11, human FcγRI (human, UniProt P12314 16-288, limits assumed); test: Biacore (SPR), receptor loaded on the chip, antibody 0.411 to 33.33 nM as analyte, 1:1 affinity analysis (FIG. 9)
T11 construct: Biacore partner; also called FcγR1
T11 sequence (P12314 16-288 limits assumed): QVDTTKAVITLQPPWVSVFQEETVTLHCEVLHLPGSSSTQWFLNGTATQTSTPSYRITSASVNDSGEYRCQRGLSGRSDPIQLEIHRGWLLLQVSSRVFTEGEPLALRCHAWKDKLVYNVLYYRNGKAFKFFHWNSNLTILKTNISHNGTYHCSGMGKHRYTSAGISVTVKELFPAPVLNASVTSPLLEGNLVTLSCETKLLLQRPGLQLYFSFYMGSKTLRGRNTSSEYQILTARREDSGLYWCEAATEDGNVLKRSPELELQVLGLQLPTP

B1: 3F9.E4 (antibody, V domains shown)
VH: EVQLQESGEGLVKPGGSLKLSCAASGFTFSNYAMSWVRQTPEKRLEWVAYISPGGDYIYYADTVKGRFTISRDNARNTLYLQMSSLKSEDTAMYYCTTDRRHYGSYAMDYWGQGISVTVSS
VL: DIVMTQAAPSVPVTPGESVSISCRSSKSLLHSNGNTYLYWFLQRPGQSPQLLIYRMSNLASGVPDRFSGSGSGTAFTLRISRVEAEDVGVYYCMQHLEYPFTFGSGTKLEIK
notes: Mouse monoclonal: captured on anti-mouse IgG Fc sensors and detected with anti-mouse IgG; also called 3F9 antibody; anti-MICA/B mAb
**Q.** With B1 as the binder, how does the Kd [1] read?
**A.** Its Kd is 1.18 nM.

**Q.** What about the koff [1] of the same binder?
**A.** Its koff is 0.000421 s⁻¹.

**Q.** And the kon [1]?
**A.** Its kon is 383000 M⁻¹ s⁻¹.

**Q.** What about the “EC50 (read off the curve)” value [2] of the same binder?
**A.** Its value is roughly 0.03 µg/mL.

**Q.** What about the “EC50 (read off the curve)” value [3] of the same binder?
**A.** Its value is roughly 0.03 µg/mL.

**Q.** And the “EC50 (read off the curve)” value [4]?
**A.** Its value is roughly 0.03 µg/mL.

**Q.** What about the “EC50 (read off the curve)” value [5] of the same binder?
**A.** The value was roughly 0.03 µg/mL.

**Q.** And the “EC50 (read off the curve)” value [6]?
**A.** Its value is roughly 0.03 µg/mL.

**Q.** And the “EC50 (read off the curve)” value (Recombinant MICB protein)?
**A.** Its value is roughly 0.03 µg/mL.

B2: anti-MICA/B 3F9H1L3L wild type antibody (antibody, human IgG1, kappa)
heavy: not shown
light: DIVMTQSPLSLPVTPGEPASISCRSSKSLLHSNLNTYLYWFLQKPGQSPQILIYRMSNLASGVPDRFSGSGSGTAFTLKISRVEAEDVGVYYCMQHLEYPFTFGPGTKLEIKRTVAAPSVFIFPPSDEQLKSGTASVVCLLNNFYPREAKVQWKVDNALQSGNSQESVTEQDSKDSTYSLSSTLTLSKADYEKHKVYACEVTHQGLSSPVTKSFNRGEC
notes: also called CLN-619; CLN619; copies: 2 + 2
**Q.** Which results are given for B2?
**A.** Kd (human FcRn): 489 nM; binding result (CD32B): binds; binding result (CD32A (167His)): binds; binding result (CD16A (176 Val)): binds; binding result (CD16A (176 Phe)): binds; binding result (human FcγRI): binds

B3: anti-MICA/B 3F9H1L3L antibody with the two heavy chain S239D and I332E mutations (antibody, human IgG1, kappa)
heavy: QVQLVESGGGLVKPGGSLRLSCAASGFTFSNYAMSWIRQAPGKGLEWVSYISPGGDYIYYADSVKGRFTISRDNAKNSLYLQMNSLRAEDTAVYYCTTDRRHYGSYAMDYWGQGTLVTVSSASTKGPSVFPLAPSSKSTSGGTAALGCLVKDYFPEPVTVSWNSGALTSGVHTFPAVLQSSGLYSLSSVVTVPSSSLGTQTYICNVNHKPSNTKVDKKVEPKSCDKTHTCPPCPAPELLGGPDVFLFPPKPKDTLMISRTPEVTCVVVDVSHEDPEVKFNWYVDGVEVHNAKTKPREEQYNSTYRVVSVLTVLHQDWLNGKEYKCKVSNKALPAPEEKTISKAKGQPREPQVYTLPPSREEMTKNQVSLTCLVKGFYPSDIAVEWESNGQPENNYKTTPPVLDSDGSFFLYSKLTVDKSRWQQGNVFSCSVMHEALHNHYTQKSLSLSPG
light: B2 light
notes: also called 3F9HIL3L S239D and I332E; CLN-619 DM; copies: 2 + 2
**Q.** What does the source list for B3?
**A.** Kd (human FcRn): 504 nM; binding result (CD32B): binds; binding result (CD32A (167His)): binds; binding result (CD16A (176 Val)): binds; binding result (CD16A (176 Phe)): binds; binding result (human FcγRI): binds

B4: anti-MICA/B 3F9H1L3L afucosylated antibody (antibody, human IgG1, kappa)
heavy: not shown
light: B2 light
modifications: afucosylated Fc N-glycan (Fc glycosylation site Asn 297, EU numbering), made with GlymaxX technology
notes: It differs only by lacking fucose on the Fc glycan; also called GLYMAXX; 3F9H1L3L GLYMAXX; copies: 2 + 2
**Q.** How did the Kd (human FcRn) turn out when B4 was run?
**A.** The Kd was 468 nM.

**Q.** Does B4 bind (CD32B)?
**A.** Result: binds

**Q.** Does B4 bind (CD32A (167His))?
**A.** Result: binds

**Q.** Does B4 bind (CD16A (176 Val))?
**A.** Result: binds

**Q.** Does B4 bind (CD16A (176 Phe))?
**A.** Result: binds

**Q.** Does B4 bind (human FcγRI)?
**A.** Result: binds

B5: 16F10.C12 (antibody, V domains shown)
VH: EVQLQESGPGLVAPSQSLSITCTVSGFSLTAFGVNWVRQPPGKGLEWLGMIWGDGNTDYNSTLRSRLSISKDNSKSQVFLKLNSLQTDDTARYFCARETYYGNYAGLGYWGQGTLVTVSA
VL: QIVLTQSPAIMSASIGERVTMTCTASSSVSSNYLHWYQQKPRSSPKLWIYTTSNLASGVPTRFSGSGSGTSYSLTISSMEAEDAATYYCHQFHRSPFTFGSGTKLEIK
notes: Mouse monoclonal: captured on anti-mouse IgG Fc sensors
**Q.** What does the source list for B5?
**A.** Kd [1]: 6.45 nM; koff [1]: 0.000548 s⁻¹; kon [1]: 93300 M⁻¹ s⁻¹
